In patent US20180030127A1 (APRILBIO, published 2018):

What was measured:
[1] = molecular target: T1, human serum albumin (human, UniProt P02768 25-609); test: ELISA, purified soluble Fab, pH 6
T1 construct: Bought protein; also called HSA; human SA
Procedure: (§1) For the monoclonal phage ELISA, the recombinant phage was obtained from positive E. coli clones by phage rescue, and ˜10⁸ CFU/well were added to MaxiSorb ELISA plates (Nunc, Roskilde, Denmark) that were coated with 5 μg/ml HSA, RSA, MSA or BSA. The phage was allowed to bind to the antigens either at pH 6 or at pH 7.4 for 1 h at 37° C. A goat anti-human kappa L Ab-conjugated with HRPO (Sigma-Aldrich) was used as a secondary antibody. The binding signals were visualized with a TMB substrate (BD Science, San Jose, Calif., USA), and the absorbance at 450 nm was measured using an ELISA reader (Bio-Rad, Hercules, Calif., USA). The data represent the average of three experiments standard deviation. For the conventional ELISA, the various antigens [human SA, rat SA, mouse SA, monkey SA (Alpha diagnositic Intl., San Antonio, Tex., USA), canine SA (CUSABIO, Wuhan, Hubei, China). rabbit SA (Sigma-Aldrich), epidermal growth factor receptor (EGFR) (R&D systems, Minneapolis, Minn., USA), epithelial cell adhesion molecule (EpCAM) (R&D systems), IL-15 receptor a (IL-15Ra) (R&D systems), IL-10 (eBioscience, San Diego, Calif., USA), CD16a (R&D systems), c-MET (Sinobiological, Beijing, China)] at 5 μg/ml concentrations were immobilized on the microtiter plates, and the Fab molecules were allowed to bind to the antigens, and detected as above. […]

[2] = molecular target: T1, human serum albumin; test: ELISA, purified soluble Fab on coated HSA
[3] = molecular target: T2, epidermal growth factor receptor (UniProt P00533 25-645); test: ELISA, soluble Fab, antigen coated at 5 µg/ml
T2 construct: also called EGFR

[4] = molecular target: T3, epithelial cell adhesion molecule (UniProt P16422 24-265); test: ELISA, soluble Fab, antigen coated at 5 µg/ml
T3 construct: also called EpCAM
T3 sequence (looked up): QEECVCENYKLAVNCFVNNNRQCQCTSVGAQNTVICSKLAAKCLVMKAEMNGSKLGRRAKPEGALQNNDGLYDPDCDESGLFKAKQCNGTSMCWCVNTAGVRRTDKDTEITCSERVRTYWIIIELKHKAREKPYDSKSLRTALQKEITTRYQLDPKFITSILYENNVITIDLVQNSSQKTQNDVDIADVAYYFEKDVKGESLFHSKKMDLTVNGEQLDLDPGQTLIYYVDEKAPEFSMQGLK

[5] = molecular target: T4, IL-15 receptor a (UniProt Q13261 31-205); test: ELISA, soluble Fab, antigen coated at 5 µg/ml
T4 construct: also called IL-15Ra
T4 sequence (Q13261 31-205 limits assumed): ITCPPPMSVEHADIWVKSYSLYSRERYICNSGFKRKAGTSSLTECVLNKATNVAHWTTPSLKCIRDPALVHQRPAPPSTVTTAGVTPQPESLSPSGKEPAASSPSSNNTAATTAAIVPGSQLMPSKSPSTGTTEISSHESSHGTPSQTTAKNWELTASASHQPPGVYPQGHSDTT

[6] = molecular target: CD16a (UniProt P08637 17-208); test: ELISA, soluble Fab, antigen coated at 5 µg/ml
Chain of CD16a (P08637 17-208 limits assumed): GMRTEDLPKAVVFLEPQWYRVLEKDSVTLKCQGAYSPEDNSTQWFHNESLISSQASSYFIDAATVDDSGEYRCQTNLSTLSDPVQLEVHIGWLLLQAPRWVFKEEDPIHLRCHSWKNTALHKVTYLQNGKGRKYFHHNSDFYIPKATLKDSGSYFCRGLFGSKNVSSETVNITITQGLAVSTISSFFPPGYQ

[7] = molecular target: T5, rat serum albumin (rat, UniProt P02770 25-608); test: ELISA, purified soluble Fab on coated RSA, pH 6; rat SA, pH 6
T5 construct: Bought protein; also called RSA; rat SA
T5 sequence (P02770 25-608 limits assumed): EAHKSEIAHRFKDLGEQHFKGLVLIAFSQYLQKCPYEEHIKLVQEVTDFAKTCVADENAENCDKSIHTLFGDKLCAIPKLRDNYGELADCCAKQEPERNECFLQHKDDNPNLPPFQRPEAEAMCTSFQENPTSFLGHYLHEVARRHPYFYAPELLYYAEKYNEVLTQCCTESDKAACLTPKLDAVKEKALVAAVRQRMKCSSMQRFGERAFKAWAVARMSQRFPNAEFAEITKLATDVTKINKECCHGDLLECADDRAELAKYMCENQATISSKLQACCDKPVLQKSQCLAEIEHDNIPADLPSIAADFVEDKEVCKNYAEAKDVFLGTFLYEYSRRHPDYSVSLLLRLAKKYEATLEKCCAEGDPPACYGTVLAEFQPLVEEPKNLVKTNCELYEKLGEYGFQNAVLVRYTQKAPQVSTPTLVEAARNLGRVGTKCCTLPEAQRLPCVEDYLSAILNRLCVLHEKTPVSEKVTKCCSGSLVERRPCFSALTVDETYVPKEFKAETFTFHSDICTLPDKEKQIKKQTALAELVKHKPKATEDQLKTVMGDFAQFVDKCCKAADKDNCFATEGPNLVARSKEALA
Procedure: as §1

[8] = molecular target: T1, human serum albumin; test: ELISA, purified soluble Fab on coated HSA, pH 6; human SA, pH 6
Procedure: as §1

[9] = molecular target: T1, human serum albumin; test: biolayer interferometry (Octet RED), SL335 on AR2G biosensor, HSA in solution, pH 6.0
Procedure: (§2) Real-time binding assays between the purified SL335 and the antigens (human SA, rat SA or mouse SA) were performed using biolayer interferometry with an Octet RED system (ForteBio, Menlo park, Calif., USA) as previously described except that AR2G (Amine Reactive Second-Generation) sensors were used (Costin et al., (2013) J Virol. 87, 52-66). Briefly, the predetermined concentration of SL335 was coupled to kinetics grade AR2G biosensors, and unbound Fab fragments were removed from the surfaces of the sensors by incubating in the kinetics buffer […]. […] The binding and dissociation kinetics were calculated using the Octet QK software package, which fit the observed binding curves to a 1:1 binding model to calculate the association rate constants. The association and dissociation rate constants were calculated using at least three different concentrations of human SA, rat SA or mouse SA. The equilibrium dissociation constants were calculated as the kinetic dissociation rate constant divided by the kinetic association rate constant.
(§3) Since SL335 was the best binder among four anti-human SA Fab clones, its cross-reactivity was further analyzed by ELISA. […] The binding affinities of SL335 to human SA, rat SA and mouse SA at pH 6 or pH 7.4 were further measured via biolayer interferometry by passing through different concentration of the antigens on biosensors that were coated with SL335 (see Table 6 below).

[10] = molecular target: T1, human serum albumin; test: biolayer interferometry (Octet RED), SL335 on AR2G biosensor, HSA in solution, pH 7.4
Procedure: as §2, §3

[11] = molecular target: T6, mouse serum albumin (mouse, UniProt P07724 25-608); test: biolayer interferometry (Octet RED), SL335 on AR2G biosensor, MSA in solution, pH 6; the filing calls the data unreliable; pH 6; left out of Table 6 for lack of reliability
T6 construct: Bought protein; also called MSA; mouse SA
T6 sequence (P07724 25-608 limits assumed): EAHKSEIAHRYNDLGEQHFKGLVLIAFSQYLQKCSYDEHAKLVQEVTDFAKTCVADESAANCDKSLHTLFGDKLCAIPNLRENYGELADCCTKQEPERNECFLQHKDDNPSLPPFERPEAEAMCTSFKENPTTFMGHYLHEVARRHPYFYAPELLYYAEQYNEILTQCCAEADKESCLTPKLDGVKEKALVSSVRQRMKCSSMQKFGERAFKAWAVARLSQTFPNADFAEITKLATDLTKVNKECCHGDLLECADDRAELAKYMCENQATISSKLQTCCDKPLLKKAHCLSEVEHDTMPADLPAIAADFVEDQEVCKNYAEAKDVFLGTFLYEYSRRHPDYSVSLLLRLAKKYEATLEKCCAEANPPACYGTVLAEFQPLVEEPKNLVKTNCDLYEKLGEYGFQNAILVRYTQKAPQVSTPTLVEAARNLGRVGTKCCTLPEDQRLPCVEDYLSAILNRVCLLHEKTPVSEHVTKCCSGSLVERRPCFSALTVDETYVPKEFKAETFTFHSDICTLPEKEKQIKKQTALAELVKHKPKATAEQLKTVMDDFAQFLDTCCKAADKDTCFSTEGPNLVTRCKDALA
Procedure: as §2

B1: SL335 (Fab, V domains shown)
VH: QVQLVQSGGGPVKPGGSLRLSCAASGFMFRAYSMNWVRQAPGKGLEWVSSISSSGRYIHYADSVKGRFTISRDNAKNSLYLQMNSLRAEDTAVYYCARETVMAGKALDYWGQGTLVTVSS
VL: ELVLTQSPGTLSLSPGETATLSCRASQSVGSNLAWYQQKPGQAPRLLIYGASTGATGVPARFSGSRSGTDFTLTITSLQPEDFATYYCQQYYSFLAKTFGQGTQLEIKR
notes: Human anti-serum albumin Fab in the classic form (VH+CH1 with Cys233, VL+CLk with Cys214); tested on phage and as soluble Fab purified from E. coli; also called SL335wt; SL335 Fab
[1]
  fold stronger binding than to rat SA at pH 6: 20 fold
[2]
  fold stronger binding at pH 6 than at pH 7.4: 2 fold
[3]
  binding result: no binding
[4]
  binding result: no binding
[5]
  binding result: no binding
[6]
  binding result: no binding
[7]
  EC50: 0.4 mg/L
[8]
  EC50: 0.02 mg/L
[9]
  Kd: 0.00868 µM
  koff: 0.00155 s⁻¹
  kon: 179000 M⁻¹ s⁻¹
[10]
  Kd: 0.013 µM
  koff: 0.00152 s⁻¹
  kon: 117000 M⁻¹ s⁻¹
[11]
  Kd: ~10 µM
